The values below come from paper PMC7063977, “Improving the Thermostability of Rhizopus chinensis Lipase Through Site-Directed Mutagenesis Based on B-Factor Analysis” (Frontiers in Microbiology, 2020).

For orientation: Km means the substrate concentration at which the rate is half of its maximum. What is called Vmax is the rate approached at saturating substrate. Broadly, the kcat is the maximal rate divided by the concentration of active sites. In general, kcat/Km refers to the turnover number divided by the Michaelis constant.

The subject of series [1] is CCCCCCCCCCCCCCCC(=O)Oc1ccc([N+](=O)[O-])cc1. The experiment in a line: p-nitrophenol release, Lineweaver-Burk. The following applies: Tris-HCl pH 9, 37 °C, substrate 4-PNN [sic], 4-NPP in materials, apparent Km. Type of series: biochemical, Rhizopus microsporus. The source says:
(§1) p-nitrophenol release, Lineweaver-Burk on Lipr27RCL

Substrate in series [2]: CCCCCCCCCCCCCCCC(=O)Oc1ccc([N+](=O)[O-])cc1
Description: p-nitrophenol release, Lineweaver-Burk. The following applies: Tris-HCl pH 9, 37 °C, substrate 4-PNN [sic], 4-NPP in materials, apparent Km. It counts as biochemical, Rhizopus microsporus.
Excerpt: as §1
The source holds these as a separate data set.

“Lipr27RCL (Rhizopus microsporus var. chinensis; D159T)”: in series [1], the Michaelis constant (Km) amounted to 380 ± 50 µM, the maximal velocity (Vmax) was 709 µmol/min/mg, the kcat worked out at 187 ± 16.3 s⁻¹ and the kcat/Km was found to be 491000 M⁻¹ s⁻¹.
Taken in the same sequence, the figures for “Lipr27RCL (Rhizopus microsporus var. chinensis; K157N)” were 290 ± 90 µM, 588 µmol/min/mg, 185 ± 18.5 s⁻¹ and 637000 M⁻¹ s⁻¹.
As for “Lipr27RCL (Rhizopus microsporus var. chinensis; K161T)”, in series [1], the Km amounted to 290 ± 60 µM, the Vmax turned out to be 714 µmol/min/mg, the turnover number (kcat) was 188 ± 13.7 s⁻¹ and the kcat/Km is 648000 M⁻¹ s⁻¹.
Consider “Lipr27RCL (Rhizopus microsporus var. chinensis; W158I)”, for which, in series [1], the Michaelis-Menten constant (Km) came out at 450 ± 40 µM, the maximal velocity (Vmax) came out at 500 µmol/min/mg, the catalytic constant (kcat) came out at 132 ± 19.4 s⁻¹ and the catalytic efficiency (kcat/Km) worked out at 292000 M⁻¹ s⁻¹.

B1: Lipr27RCL (Rhizopus microsporus var. chinensis) (protein)
chain: DTETVGGMTLDLPENPPPIPATSTAPSSDSGEVVTATAAQIKELTNYAGVAATAYCRSVVPGTKWDCKQCLKYVPDGKLIKTFTSLLTDTNGFILRSDAQKTIYVTFRGTNSFRSAITDMVFTFTDYSPVKGAKVHAGFLSSYNQVVKDYFPVVQDQLTAYPDYKVIVTGHSLGGAQALLAGMDLYQREKRLSPKNLSIYTVGCPRVGNNAFAYYVDSTGIPFHRTVHKRDIVPHVPPQAFGYLHPGVESWIKEDPADVQICTSNIETKQCSNSIVPFTSIADHLTYFGINEGSCL
In the case of B1, in series [2], the Km was 360 ± 60 µM, the Vmax amounted to 714 µmol/min/mg, the kcat was 188 ± 18.2 s⁻¹ and the specificity constant (kcat/Km) is 522000 M⁻¹ s⁻¹.
